Assay results: US20250282834A1 (University of California, published 2025)
Non-standard residues stand in square brackets, D forms with d. No end group written: not given here. *: point of attachment. Biotin = O=C1N[C@H]2[C@H](CS[C@H]2CCCCC(=O)*)N1; Orn = NCCC[C@H](N)C(=O)O; βAla = NCCC(=O)O

What was measured:
[1] = target: T1, full-length Flag-CHD4 (chromodomain helicase DNA-binding protein 4) (UniProt Q14839 1-1912); experiment: peptide pull-down: 100 nM purified Flag-CHD4 with 1 µg N-biotinylated peptide, anti-Flag immunoblot
T1 construct: FLAG-tagged, made in recombinant baculovirus infected Sf9 cells and purified on Flag-agarose; also called purified CHD4; full-length CHD4

[2] = target: T1, full-length Flag-CHD4 (chromodomain …); experiment: BLI, biotinylated peptide on streptavidin tips, full-length Flag-CHD4 at 0-50 nM in solution
[3] = target: T2, CHD4 (endogenous, in PEL cells BC3 / BCBL-1) (UniProt Q14839 1-1912); experiment: streptavidin pull-down from BC3 cells incubated with 10 µM biotinylated peptide, anti-CHD4 immunoblot
T2 construct: Cellular protein in treated cells and their lysates

[4] = target: T1, full-length Flag-CHD4 (chromodomain …); experiment: ELISA, plate coated with 1 µM biotinylated VGN73, Flag-CHD4 protein titrated, OD 450 nm
685-1245 = target: T3, 685-1245; experiment: ELISA, plate coated with 1 µM biotinylated VGN73, Flag-CHD4 deletion protein titrated, OD 450 nm
T3 construct: Member of the group m7; The map draws it with the ATPase and C-terminal helicase boxes only, without PHD; also called Flag-CHD4 deletion protein 685-1245

1250-1912 = target: T4, 1250-1912; experiment: as above
T4 construct: Member of the group m7; The map draws it with the two DUF domains and CHDCT2, without PHD; also called Flag-CHD4 deletion protein 1250-1912

1531-1912 = target: T5, 1531-1912; experiment: as above
T5 construct: Member of the group m7; The map draws it with CHDCT2 only, without PHD; also called Flag-CHD4 deletion protein 1531-1912

T1 sequence (Q14839 whole entry): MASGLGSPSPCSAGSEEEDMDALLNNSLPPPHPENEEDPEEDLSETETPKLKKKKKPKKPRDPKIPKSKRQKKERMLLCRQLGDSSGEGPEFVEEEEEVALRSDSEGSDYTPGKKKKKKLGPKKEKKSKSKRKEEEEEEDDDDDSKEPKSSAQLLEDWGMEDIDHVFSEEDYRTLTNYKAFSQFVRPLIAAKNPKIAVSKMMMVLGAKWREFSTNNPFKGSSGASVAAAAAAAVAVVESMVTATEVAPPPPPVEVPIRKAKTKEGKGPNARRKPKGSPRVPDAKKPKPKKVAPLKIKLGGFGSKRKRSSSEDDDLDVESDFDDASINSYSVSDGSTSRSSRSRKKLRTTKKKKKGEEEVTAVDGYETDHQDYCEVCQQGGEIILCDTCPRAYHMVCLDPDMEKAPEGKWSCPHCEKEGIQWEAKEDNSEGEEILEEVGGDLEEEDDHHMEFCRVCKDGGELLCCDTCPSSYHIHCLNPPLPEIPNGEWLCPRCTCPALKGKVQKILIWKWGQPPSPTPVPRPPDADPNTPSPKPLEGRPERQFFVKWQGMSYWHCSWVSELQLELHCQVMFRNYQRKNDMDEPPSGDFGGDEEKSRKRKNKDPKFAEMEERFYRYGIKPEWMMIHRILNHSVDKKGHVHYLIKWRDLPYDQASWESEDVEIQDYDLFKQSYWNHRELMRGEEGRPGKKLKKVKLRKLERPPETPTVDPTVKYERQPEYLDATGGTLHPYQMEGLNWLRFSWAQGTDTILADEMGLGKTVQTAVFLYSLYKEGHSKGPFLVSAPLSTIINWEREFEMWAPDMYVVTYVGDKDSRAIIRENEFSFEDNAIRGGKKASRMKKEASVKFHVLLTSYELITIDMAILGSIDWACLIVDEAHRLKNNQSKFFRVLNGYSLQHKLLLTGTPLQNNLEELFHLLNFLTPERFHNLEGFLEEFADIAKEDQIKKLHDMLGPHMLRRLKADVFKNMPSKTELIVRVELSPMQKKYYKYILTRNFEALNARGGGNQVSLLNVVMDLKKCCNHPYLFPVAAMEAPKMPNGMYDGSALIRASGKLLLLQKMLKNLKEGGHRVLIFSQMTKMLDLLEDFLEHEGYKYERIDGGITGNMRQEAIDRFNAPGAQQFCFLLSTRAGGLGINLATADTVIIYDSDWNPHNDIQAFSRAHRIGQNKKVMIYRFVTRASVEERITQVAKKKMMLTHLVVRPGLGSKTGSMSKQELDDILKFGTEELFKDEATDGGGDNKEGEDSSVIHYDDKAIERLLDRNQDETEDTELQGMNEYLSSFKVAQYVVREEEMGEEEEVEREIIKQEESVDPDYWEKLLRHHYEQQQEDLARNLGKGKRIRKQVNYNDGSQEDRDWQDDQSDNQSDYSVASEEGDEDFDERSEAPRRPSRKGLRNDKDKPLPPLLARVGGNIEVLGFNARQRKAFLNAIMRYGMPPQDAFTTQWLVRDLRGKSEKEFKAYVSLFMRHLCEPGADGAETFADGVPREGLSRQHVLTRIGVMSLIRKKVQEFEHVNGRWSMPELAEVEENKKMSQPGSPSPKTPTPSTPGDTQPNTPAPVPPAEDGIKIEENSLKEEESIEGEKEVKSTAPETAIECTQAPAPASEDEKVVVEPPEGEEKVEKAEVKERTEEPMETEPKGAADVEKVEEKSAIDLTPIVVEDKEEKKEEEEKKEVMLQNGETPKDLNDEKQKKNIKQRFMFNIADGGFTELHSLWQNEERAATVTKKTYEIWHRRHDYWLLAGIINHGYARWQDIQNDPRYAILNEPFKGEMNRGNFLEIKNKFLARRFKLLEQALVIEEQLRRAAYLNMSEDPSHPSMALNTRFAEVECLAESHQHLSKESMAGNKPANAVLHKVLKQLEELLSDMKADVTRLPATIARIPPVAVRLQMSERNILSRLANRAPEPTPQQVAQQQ
T2 sequence (Q14839 whole entry): as above

B1: #8 (peptide)
peptide: Biotin-QPPVPYRQIDDCPAKARPQHIFYR
notes: also called N-Biotin LANA peptide 8; KSHV LANA 977-1000
Does B1 bind [1]?
Result: no binding (tested: 1 µg peptide with 100 nM CHD4)

B2: VGN73 mutant peptide (TAT-VGN73 mutant fusion peptide) (peptide)
peptide: [dR]KKRR[Orn]RRR[βAla]AKHAVISAGNDPYGLKK
modifications: also: N-terminal biotin only in BLI form
Does B2 bind [2]?
Result: no binding (tested: 50 nM)

Does B2 bind [3]?
Result: no binding (tested: 10 µM)

B3: #1 (peptide)
peptide: Biotin-EQELEEVEEQEEQELEEVEEQEQ
notes: also called N-Biotin LANA peptide 1; KSHV LANA 872-894 as printed
Does B3 bind [1]?
Result: no binding (tested: 1 µg peptide with 100 nM CHD4)

B4: #4 (peptide)
peptide: Biotin-EDEMEVDYPVVSTHEQIASSPPG
notes: also called N-Biotin LANA peptide 4; KSHV LANA 906-928
Does B4 bind [1]?
Result: no binding (tested: 1 µg peptide with 100 nM CHD4)

B5: VGN73 (TAT-VGN73 fusion peptide) (peptide)
peptide: [dR]KKRR[Orn]RRR[βAla]WKHAVIFWGNDPYGLKK
modifications: also: N-terminal biotin only in ELISA, BLI and pull-down forms
notes: Used without biotin in cell treatment assays; also called LANA peptide; cell-penetrating LANA peptide
Which results are given for B5?
EC50 (read off the curve) [4]: ~10 nM; binding result (685-1245): no binding (tested: 100 nM); binding result (1250-1912): no binding (tested: 100 nM); binding result (1531-1912): no binding (tested: 100 nM)

B6: modified TAT peptide (peptide)
peptide: RKKRRXRRRA
modifications: d-Arg at position 1; ornithine (ORN) at position 6; beta-alanine at position 10; N-terminal biotin in BLI
notes: also called TAT alone; biotinylated TAT peptide
Does B6 bind [2]?
Result: no binding (tested: 50 nM)

Does B6 bind [3]?
Result: no binding (tested: 10 µM)

B7: #2 (peptide)
peptide: Biotin-EEVEEQEQQGVEQQEQETVEE
notes: also called N-Biotin LANA peptide 2; KSHV LANA 876-896 as printed
Does B7 bind [1]?
Result: no binding (tested: 1 µg peptide with 100 nM CHD4)

B8: #5 (peptide)
peptide: Biotin-IASSPPGDNTPDDDPQPGPSREYR
notes: also called N-Biotin LANA peptide 5; KSHV LANA 922-945
Does B8 bind [1]?
Result: no binding (tested: 1 µg peptide with 100 nM CHD4)

B9: #3 (peptide)
peptide: Biotin-ETVEEPIILHGSSSEDEMEVDYP
notes: also called N-Biotin LANA peptide 3; KSHV LANA 892-914
Does B9 bind [1]?
Result: no binding (tested: 1 µg peptide with 100 nM CHD4)
